Experimental data as given in patent US5710126A, “T cell epitopes of ryegrass pollen allergen” (ImmuLogic Pharmaceutical Corporation, priority 1995, dated 1998).

Key:
[1] = tested on: T cell lines from grass-allergic patients primed in vitro with affinity purified Lol p V; assay: T cell proliferation (tritiated thymidine uptake) of Lol p V-primed T cell lines restimulated with peptides or proteins; type: cell-based, human; settings: one allergic patient; results not shown; 2-50 μg/ml antigen
Text: As discussed in Example 2, human T cell stimulating activity can be tested by culturing T cells obtained from an individual sensitive to Lol p V allergen, (i.e., an individual who has an IgE mediated immune response to Lol p V allergen) with a peptide derived from the allergen and determining whether proliferation of T cells occurs in response to the peptide as measured, e.g., by cellular uptake of tritiated thymidine. Stimulation indices for responses by T cells to peptides can be calculated as the maximum CPM in response to a peptide divided by the control CPM. A stimulation index (S.I.) equal to or greater than two times the background level is considered "positive". […]
In addition, preferred peptides have a positivity index (P.I.) of at least about 60, more preferably about 100, more preferably at least about 200 and most preferably at least about 300. The positivity index for a peptide is determined by multiplying the mean T cell stimulation index by the percent of individuals, in a population of individuals sensitive to ryegrass pollen (e.g., preferably a population of at least 15 individuals,more preferably a population of at least 30 individuals or more), who have a T cell stimulation index to such peptide of at least 2.0. […]
This amount of priming antigen was determined to be optimal for the activation of T cells from most grass-allergic patients. […]

human IgE = assay: Direct ELISA of human IgE binding to coated antigen
Description: (§1) To examine the importance of Lol p V, both direct and competition ELISA assays were performed. In the direct ELISA, 100 μl of 10 μg/ml of antigen in Phosphate Buffered Saline, pH 7.4 (PBS) was used to coat Immulon II (Dynatech, Chantilly, Va.) 96 well plates for 4 hours at room temperature (RT) or overnight (O/N) at 4° C. In between each step the plates were washed 3× with PBS-T. The excess coating antigen(s) was removed and the wells blocked with 300 μl/well 0.5% gelatin+1 mg/ml PVP in PBS for 1 hour at RT. Serially diluted patient plasma or the diluent PBS+0.05% Tween^-20 was incubated in at 100 μl/well in duplicate wells overnight at 4° C. […] Plates were read on a MR7000 plate reader (Dynatech, Chantilly, Va.) with a 450 nm filter. The absorbance levels of duplicate wells were averaged. The results were graphed as absorbance vs. dilution. […] The results are plotted as the absorbance vs. the log of the concentration of competing antigen.
For the direct ELISA, wells were coated with either soluble pollen extract (SPE) of ryegrass pollen or rLol p V (purified native Lol p V may have a small amount of Lol p I; use of recombinant material assures that the IgE binding is only to Lol p V ) and human IgE antibody binding to these antigens was analyzed. […]

[2] = tested on: human basophil mediator release; assay: Histamine release assay on whole blood of a ryegrass allergic individual; type: cell-based; settings: one ryegrass allergic individual; 37° C., 30 minutes; FIG. 12
Description: A histamine release assay was performed on one ryegrass allergic individual, using Lol p SPE and rLol p V as the added antigens. This assay is a measure of IgE reactivity through human basophil mediator release, and it is based on the detection of an acylated derivative of histamine using a specific monoclonal antibody (Morel, A. M. and Delaage, M. A.; 1988, J. Allergy Clin. Immunol. 82:646-654). The reagents for this radioimmunoassay are sold as a kit by Amac Inc. (Westbrook, Me.). Whole heparinized blood drawn from a grass allergic individual and then 200 μl aliquots were mixed with an equal amount of the grass antigens SPE and rLol p V at various concentrations or the diluent, PACM buffer (25 mM PIPES, 100 mM NaCl, 5 mM KCL, 4 mM CaCl2, 1 mM MgCl2, 0.003% HSA, pH7.3) in 1.5 ml polypropylene. The release reactions were carried out at 37° C. for 30 minutes. After this incubation, the samples were centrifuged at 1500 RPM for 3 minutes and the supernatants removed. For the total histamine release, 0.1 ml of blood was added to 0.9 ml of PACM buffer, vortexed, and then boiled for 3 minutes. The samples were spun at 13000 RPM and the supernatant removed for analysis. Duplicate samples were used to measure total release. All of the supernatants are diluted 1:4 in acylation buffer and the remainder of the assay is performed according to the manufacturer's instructions.

[3] = tested on: human IgE binding to ryegrass pollen SPE; assay: Competition ELISA for IgE binding to ryegrass pollen SPE; settings: IgE source PHP-A or individual patient plasma; FIGS. 10 and 11
Description: as §1
In the competition assay, ELISA wells were coated with ryegrass pollen SPE and then allergic patient IgE binding was measured in the presence of competing ryegrass pollen SPE, purified native Lol p V, or rLol p V. The source of allergic IgE in this assay was PHP-A (FIG. 10) or individual patient plasma (FIG. 11). […]

specific IgE antibody = settings: immunoblotting; Lol p V isoforms; WO 93/04174; cited from earlier work

B1: rLol p V: bacterially expressed recombinant Lol p V encoded by clone 12R, with His6 sequence, purified on Ni chelating column (protein)
chain: ADAGYTPAAAATPATPAATPAAAGGKATTDEQKLLEDVNAGFKAAVAAAANAPPADKFKIFEAAFSESSKGLLATSAAKAPGLIPKLDTAYDVAYKAAEGATPEAKYDAFVTALTEALRVIAGALEVHAVKPATEEVPAAKIPTGELQIVDKIDAAFKIAATAANAAPTNDKFTVFESAFNKALNECTGGAYETYKFIPSLEAAVKQAYAATVAAAPEVKYAVFEAALTKAITAMTQAQKAGKPAAAAATGAATVATGAATAAAGAATAAAGGYKA
[1]
  T cell proliferative response of one patient: responds well
Human IgE; IgE source PHP-A, PHP-B or four individual patients, FIGS. 6-9
  IgE binding in direct ELISA: high IgE binding
Human IgE; IgE source PHP-B, preliminary assay, FIGS. 13a and 13b
  IgE binding in direct ELISA to Lol p V peptides and protein: very high IgE binding
[2]
  histamine release: strong histamine release over a wide concentration range

B2: purified native Lol p V: Lol p V allergen affinity purified from ryegrass pollen extract on a mAb 1B9 column (protein)
chain: ADAGYTPAAAATPATPAATPAAAGGKATTDEQKLLEDVNAGFKAAVAAAANAPPADKFKIFEAAFSESSKGLLATSAAKAPGLIPKLDTAYDVAYKAAEGATPEAKYDAFVTALTEALRVIAGALEVHAVKPATEEVPAAKIPTGELQIVDKIDAAFKIAATAANAAPTNDKFTVFESAFNKALNECTGGAYETYKFIPSLEAAVKQAYAATVAAAPEVKYAVFEAALTKAITAMTQAQKAGKPAAAAATGAATVATGAATAAAGAATAAAGGYKA
modifications: The 5 proline residues at the N-terminus were found to be all hydroxyprolines
[1]
  T cell proliferative response of one patient: responds well

B3: Lol p V: major Lolium perenne L. ryegrass pollen allergen, Group V allergen (protein)
chain: ADAGYTPAAAATPATPAATPAAAGGKATTDEQKLLEDVNAGFKAAVAAAANAPPADKFKIFEAAFSESSKGLLATSAAKAPGLIPKLDTAYDVAYKAAEGATPEAKYDAFVTALTEALRVIAGALEVHAVKPATEEVPAAKIPTGELQIVDKIDAAFKIAATAANAAPTNDKFTVFESAFNKALNECTGGAYETYKFIPSLEAAVKQAYAATVAAAPEVKYAVFEAALTKAITAMTQAQKAGKPAAAAATGAATVATGAATAAAGAATAAAGGYKA
[3]
  competition for IgE binding to ryegrass pollen SPE: a significant portion of IgE against Lol p SPE is specific for Lol p V
Specific IgE antibody
  ryegrass pollen sensitive patients possessing specific IgE antibody that bound: 80%
